Reference: US20030022247A1, “Substance which inhibits binding of information transfer molecule for 1175-tyrosine phosphorylated KDR/FLK-1 and usages of the same” (priority 2000, published 2003)
Square brackets hold non-standard residues; d marks the D form. Ends that are not written are not given here. pY = N[C@@H](Cc1ccc(OP(=O)(O)O)cc1)C(=O)O

Experiments:
[1] = system: various cancer cells transplanted into mice; conditions: cited from earlier work
[2] = molecular target: T1, 1175-tyrosine phosphorylated KDR/Flk-1 (Homo sapiens, UniProt P35968); test: Tissue immunostaining of human umbilical cord vein endothelial cells; format: cell-based; conditions: 1 μg/ml peptide; cells 5 minutes after the VEGF stimulation
T1 construct: expressing endogenous KDR/Flk-1; host or cells: human umbilical cord vein endothelial cells (HUVEC)
Method: After blocking the fixed cells for 30 minutes with PBS containing 1% goat serum, tissue immunostaining was carried out using the anti-PY1175 antibody. The detection was carried out by fluorescence microscopic observation 30 minutes after treatment with an FITC-labeled anti-rabbit IgG antibody (manufactured by Cappel) diluted to 1/100. […] Accordingly, the anti-PY1175 antibody was useful for the detection of the 1175-tyrosine phosphorylation of KDR/Flk-1 by not only immunoblotting but also tissue immunostaining.

[3] = molecular target: T2, binding of the auto-phosphorylated KDR/Flk-1 and PLC-γ (Homo sapiens, UniProt P19174+P35968); test: In vitro binding of GST-PLC-γ C-SH2 to KDR/Flk-1 from NIH3T3-KDR cell extract; format: biochemical; conditions: coexisting with GST-PLC-γ C-SH2 beads and extract of VEGF-stimulated NIH3T3-KDR
T2 construct: a fusion protein of GST and SH2 domain of the C-terminal side of PLC-γ (GST-PLC-γ C-SH2); host or cells: NIH3T3-KDR cell extract (KDR/Flk-1)
Method: Onto glutathione-Sepharose 4B beads (manufactured by Amersham Pharmacia Biotech), 1.5 μg of GST, a fusion protein of GST and SH2 domain (2 domains) of PLC-γ (GST-PLC-γ SH2-SH2), a fusion protein of GST and SH2 domain of the N-terminal side of PLC-γ (GST-PLC-γ N-SH2) and a fusion protein of GST and SH2 domain of the C-terminal side of PLC-γ (GST-PLC-γ C-SH2) (all manufactured by Santa Cruz Biotechnology Inc.) was immobilized respectively, and the cell extracts were added thereto, followed by incubation at 4° C. for 2 hours. The beads were washed three times with a cooled cell extraction buffer and heated in an SDS sample buffer to dissolve the protein bound to the beads, and then SDS-PAGE was carried out. The KDR/Flk-1 bound to each of the added proteins was detected by immunoblotting using the anti-KDR/Flk-1 antibody. The KDR/Flk-1 was detected in the VEGF-stimulated cell with GST-PLC-γ SH2-SH2 and GST-PLC-γ C-SH2, but KDR/Flk-1 was not detected with GST-PLC-γ N-SH2.
The same test of (2) was carried out by allowing the anti-PY1175 antibody and the PY1175 peptide to coexist at the time of the reaction of GST-PLC-γ C-SH2-immobilized beads with the cell extract. As a result, KDR/Flk-1 was not detected even in the VEGF-stimulated cell, and binding of the auto-phosphorylated KDR/Flk-1 and PLC-γ was inhibited by the anti-PY1175 antibody and the PY1175 peptide.

Flt-1 = Flt-1 (Homo sapiens, UniProt P17948); conditions: VEGF binding to Flt-1; cited from earlier work
[4] = molecular target: T3, mutated KDR/Flk-1 Y1175F (1175-tyrosine replaced by phenylalanine) (human, UniProt P35968 20-1356); test: immunoprecipitation with anti-KDR/Flk-1 antibody, immunoblotting with anti-PLC-γ antibody
T3 construct: Expressed in MSS31 cells by an adenovirus vector, VEGF-stimulated; cell extract; Phosphorylation at other tyrosines not specified

## Cc1cc(C)c(/C=C2\C(=O)Nc3ccccc32)[nH]1 [SU5416]
[1]
  angiogenesis, growth or metastasis of cancer cells: inhibits angiogenesis, growth or metastasis

## PY1175 peptide: SEQ ID NO:1: cysteine added to N-terminus of positions 1171 to 1180 of human KDR/Flk-1, tyrosine 1175 phosphorylated (CDGKD[pY]IVLPI)
[2]
  inhibition of anti-PY1175 antibody staining by coexisting peptide: staining was inhibited
[3]
  inhibition of binding of auto-phosphorylated KDR/Flk-1 and PLC-γ (GST-PLC-γ C-SH2): inhibited

## Y1175 peptide: SEQ ID NO:2: the same amino acid sequence of the PY1175, but the tyrosine is not phosphorylated (CDGKDYIVLPI; a peptide SEQ ID NO1 without phosphorylation) [reference compound]
[3]
  inhibition of binding of auto-phosphorylated KDR/Flk-1 and PLC-γ (GST-PLC-γ C-SH2): inhibition was not found

## vascular endothelial growth factor [VEGF]
Flt-1
  Kd: 20 pM

B1: phospholipase C-γ (PLC-γ) (enzyme, mouse, UniProt Q62077 2-1302, looked up)
chain: AGVATPCANGCGPGAPSEAEVLHLCRSLEVGTVMTLFYSKKSQRPERKTFQVKLETRQITWSRGADKIEGSIDIREIKEIRPGKTSRDFDRYQEDPAFRPDQSHCFVILYGMEFRLKTLSLQATSEDEVNMWIKGLTWLMEDTLQAATPLQIERWLRKQFYSVDRNREDRISAKDLKNMLSQVNYRVPNMRFLRERLTDLEQRSGDITYGQFAQLYRSLMYSAQKTMDLPFLETNALRTGERPEHCQVSLSEFQQFLLEYQGELWAVDRLQVQEFMLSFLRDPLREIEEPYFFLDELVTFLFSKENSVWNSQLDAVCPDTMNNPLSHYWISSSHNTYLTGDQFSSESSLEAYARCLRMGCRCIELDCWDGPDGMPVIYHGHTLTTKIKFSDVLHTIKEHAFVASEYPVILSIEDHCSIAQQRNMAQHFRKVLGDTLLTKPVDIAADGLPSPNQLRRKILIKHKKLAEGSAYEEVPTSVMYSENDISNSIKNGILYLEDPVNHEWYPHYFVLTSSKIYYSEETSSDQGNEDEEEPKEASSSTELHSSEKWFHGKLGAGRDGRHIAERLLTEYCIETGAPDGSFLVRESETFVGDYTLSFWRNGKVQHCRIHSRQDAGTPKFFLTDNLVFDSLYDLITHYQQVPLRCNEFEMRLSEPVPQTNAHESKEWYHASLTRAQAEHMLMRVPRDGAFLVRKRNEPNSYAISFRAEGKIKHCRVQQEGQTVMLGNSEFDSLVDLISYYEKHPLYRKMKLRYPINEEALEKIGTAEPDYGALYEGRNPGFYVEANPMPTFKCAVKALFDYKAQREDELTFTKSAIIQNVEKQDGGWWRGDYGGKKQLWFPSNYVEEMINPAVLEPEREHLDENSPLGDLLRGVLDVPACQIAIRPEGKNNRLFVFSISMPSVAQWSLDVAADSQEELQDWVKKIREVAQTADARLTEGKMMERRKKIALELSELVVYCRPVPFDEEKIGTERACYRDMSSFPETKAEKYVNKAKGKKFLQYNRLQLSRIYPKGQRLDSSNYDPLPMWICGSQLVALNFQTPDKPMQMNQALFMAGGHCGYVLQPSTMRDEAFDPFDKSSLRGLEPCVICIEVLGARHLPKNGRGIVCPFVEIEVAGAEYDSTKQKTEFVVDNGLNPVWPAKPFHFQISNPEFAFLRFVVYEEDMFSDQNFLAQATFPVKGLKTGYRAVPLKNNYSEDLELASLLIKIDIFPAKENGDLSPFSGISLRERASDASSQLFHVRAREGSFEARYQQPFEDFRISQEHLADHFDSRERSTSDGPSSATNLIEDPLHDKLWKCSL
notes: whole, on cells; Endogenous intracellular PLC-γ co-precipitated with KDR/Flk-1 from MSS31 cell extracts
[4]
  binding result: no binding
